The target in this data set is T1, MtuSSB (Mycobacterium tuberculosis, UniProt P9WGD5).
T1 sequence: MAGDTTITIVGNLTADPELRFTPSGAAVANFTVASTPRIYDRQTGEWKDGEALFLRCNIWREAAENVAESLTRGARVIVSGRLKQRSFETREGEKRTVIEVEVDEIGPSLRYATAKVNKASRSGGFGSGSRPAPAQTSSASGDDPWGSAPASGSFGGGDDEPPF
As to the kind of experiment: EMSA; 20 mM Tris-HCl pH 8.0, 50 mM NaCl, 5% glycerol, 50 μg/ml BSA, 15 μl, 30 min at 4°C; […]. The note with it: protein: recombinant; chain copies: 4; label: 5' 32P; single strand. On the technique in general: Mobility shift assays separate free from complexed probe on a gel.

The results in this text go back to article PMC3983218.

B1: 79 mer ssDNA (ssDNA)
DNA: GCACTAGTGCGGATAGCCCCGTGTTGTTGTCTGACCCCCGACCCCGACGGCAATGCGGGGCAATCCCCTGGAGGCCTGC
Consider B1, for which the binding result was “binds”.
